PMC5443798, “Functional characterization of the meiosis-specific DNA double-strand break inducing factor SPO-11 from C. elegans”
Substitutions are numbered along the chain they refer to.

Legend:
[1] = biological target: T1, SPO-11 (Caenorhabditis elegans, UniProt Q22236 1-425); assay: EMSA; saturated at 4.8 uM SPO-11; EMSA: 42.5 mM Tris-HCl pH 7.5, 115 mM KCl, 1 mM DTT, 0.1 mg/ml BSA, 3% glycerol, 0.15 mM EDTA, 20 C, 30 min, 300 nM DNA (10 nM plasmid), agarose gel; SPR: same; details: protein: recombinant; tags: none (His6-SUMO removed by Ulp1); blunt
T1 sequence: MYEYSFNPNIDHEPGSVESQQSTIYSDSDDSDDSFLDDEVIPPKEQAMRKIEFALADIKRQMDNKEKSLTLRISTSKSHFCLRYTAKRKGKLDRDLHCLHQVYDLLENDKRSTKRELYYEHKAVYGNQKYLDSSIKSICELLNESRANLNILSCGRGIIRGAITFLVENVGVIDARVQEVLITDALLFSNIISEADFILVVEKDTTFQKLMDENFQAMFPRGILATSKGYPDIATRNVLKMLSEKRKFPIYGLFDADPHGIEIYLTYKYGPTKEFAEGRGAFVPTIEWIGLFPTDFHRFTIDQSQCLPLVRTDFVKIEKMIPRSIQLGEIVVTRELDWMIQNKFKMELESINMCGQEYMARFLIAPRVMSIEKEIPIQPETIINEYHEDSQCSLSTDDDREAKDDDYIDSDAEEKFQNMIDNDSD

[2] = biological target: T1, SPO-11; assay: EMSA; 2.4 uM SPO-11, 300 nM DNA; EMSA: 42.5 mM Tris-HCl pH 7.5, 115 mM KCl, 1 mM DTT, 0.1 mg/ml BSA, 3% glycerol, 0.15 mM EDTA, 20 C, 30 min, 300 nM DNA (10 nM plasmid), agarose gel; SPR: same; details: protein: recombinant; tags: none (His6-SUMO removed by Ulp1); label: 3'-Cy5; blunt
[3] = biological target: T1, SPO-11; assay: SPR; 20 C, steady-state affinity, no Mg2+; EMSA: 42.5 mM Tris-HCl pH 7.5, 115 mM KCl, 1 mM DTT, 0.1 mg/ml BSA, 3% glycerol, 0.15 mM EDTA, 20 C, 30 min, 300 nM DNA (10 nM plasmid), agarose gel; SPR: same; details: protein: recombinant; tags: none (His6-SUMO removed by Ulp1); label: 5'-biotin; blunt
[4] = biological target: T2, SPO-11 E202A/D255A (Caenorhabditis elegans, UniProt Q22236 1-425, E202A;D255A); assay: EMSA; with Mg2+; as proficient as WT; EMSA: 42.5 mM Tris-HCl pH 7.5, 115 mM KCl, 1 mM DTT, 0.1 mg/ml BSA, 3% glycerol, 0.15 mM EDTA, 20 C, 30 min, 300 nM DNA (10 nM plasmid), agarose gel; SPR: same; details: protein: recombinant; tags: none (His6-SUMO removed by Ulp1); blunt
T2 sequence: T1 sequence with E202A, D255A

[5] = biological target: T3, SPO-11 E202A (Caenorhabditis elegans, UniProt Q22236 1-425, E202A); assay: as above; details: protein: recombinant; tags: none (His6-SUMO removed by Ulp1); blunt
T3 sequence: T1 sequence with E202A

[6] = biological target: T4, SPO-11 G290D (Caenorhabditis elegans, UniProt Q22236 1-425, G290D); assay: EMSA; 20 C; EMSA: 42.5 mM Tris-HCl pH 7.5, 115 mM KCl, 1 mM DTT, 0.1 mg/ml BSA, 3% glycerol, 0.15 mM EDTA, 20 C, 30 min, 300 nM DNA (10 nM plasmid), agarose gel; SPR: same; details: protein: recombinant; tags: none (His6-SUMO removed by Ulp1); blunt
T4 sequence: T1 sequence with G290D

[7] = biological target: T1, SPO-11; assay: EMSA; 20 C, no Mg2+; EMSA: 42.5 mM Tris-HCl pH 7.5, 115 mM KCl, 1 mM DTT, 0.1 mg/ml BSA, 3% glycerol, 0.15 mM EDTA, 20 C, 30 min, 300 nM DNA (10 nM plasmid), agarose gel; SPR: same; details: protein: recombinant; tags: none (His6-SUMO removed by Ulp1); blunt
[8] = biological target: T5, SPO-11 Y119F (Caenorhabditis elegans, UniProt Q22236 1-425, Y119F); assay: EMSA; as proficient as WT; EMSA: 42.5 mM Tris-HCl pH 7.5, 115 mM KCl, 1 mM DTT, 0.1 mg/ml BSA, 3% glycerol, 0.15 mM EDTA, 20 C, 30 min, 300 nM DNA (10 nM plasmid), agarose gel; SPR: same; details: protein: recombinant; tags: none (His6-SUMO removed by Ulp1); blunt
T5 sequence: T1 sequence with Y119F

[9] = biological target: T6, SPO-11 Y118F/Y119F (Caenorhabditis elegans, UniProt Q22236 1-425, Y118F;Y119F); assay: as above; details: protein: recombinant; tags: none (His6-SUMO removed by Ulp1); blunt
T6 sequence: T1 sequence with Y118F, Y119F

B1: 80 bp dsDNA (dsDNA)
DNA 1: TTATGTTCATTTTTTATATCCTTTACTTTATTTTCTCTGTTTATTCATTTACTTATTTTGTATTATCCTTATCTTATTTA
DNA 2: TAAATAAGATAAGGATAATACAAAATAAGTAAATGAATAAACAGAGAAAATAAAGTAAAGGATATAAAAAATGAACATAA
binding result [1]: binds

B2: 80 bp dsDNA, Cy5 (dsDNA)
DNA 1: B1 DNA 1
DNA 2: B1 DNA 2
modifications: 3'-Cy5 on strand 1
binding result [2]: binds

B3: 100 bp dsDNA, 5'-biotin (dsDNA)
DNA 1: AATATGATAGATAATGATAGTGATGAGGGACGTGGATCTCTTCTTACCTGCGGAGACGTCGAGGAGAACCCAGGACCAGGGGTACCTATGGCCTCCTCCG
DNA 2: CGGAGGAGGCCATAGGTACCCCTGGTCCTGGGTTCTCCTCGACGTCTCCGCAGGTAAGAAGAGATCCACGTCCCTCATCACTATCATTATCTATCATATT
modifications: 5'-biotin (strand not stated)
Kd [3]: ~470 nM

B4: 100 bp dsDNA (dsDNA)
DNA 1: B3 DNA 1
DNA 2: B3 DNA 2
binding result [4]: binds | binding result [5]: binds | binding result [6]: no binding | binding result [7]: binds | binding result [8]: binds | binding result [9]: binds
